Consider nine molecules from patent US11906519B2, “Methods for identifying LILRB-blocking antibodies” (THE BOARD OF REGENTS OF THE UNIVERSITY OF TEXAS SYSTEM, priority 2016, dated 2024).

As usually defined, the Kd is a measure of binding affinity in units of concentration. A low value points to tighter binding.

The target in test [1] is T1, LILRB4-Fc (Homo sapiens, UniProt Q8NHJ6). Description: Surface plasmon resonance (SPR) binding of APOE to LILRB4-Fc. To be noted: APOE 1.5625 nM to 100 nM. The source says:
(§1) FIGS. 25a-251—APOE binds LILRB4 and supports AML migration. FIG. 25a: As shown by analysis of the percentage of cells in the LILRB4 reporter system that are GFP^+, human serum and mouse serum specifically activate LILRB4. FIG. 25b: Recombinant APOE activates human LILRB4 and mouse PIRB in reporter systems. FIG. 25c: Serum from APOE-null mouse was unable to activate LILRB4. FIG. 25d: Lipid-reconstituted APOE (APOE-POPC) activates human LILRB4 as well as recombinant APOE in reporter systems. […] Cells stained with anti-His tag-APC served as a negative control. FIG. 25f: Binding kinetics of human APOE-3 to LILRB4-ECD-Fc were measured using surface plasmon resonance (SPR). LILRB4-ECD-Fc was immobilized on Protein A biosensor tips and incubated with APOE-3 concentrations ranging from 1.5625 nM to 100 nM. FIG. 25g: The activation of LILRB4 by APOE was reduced by mutation at N-terminal of APOE. FIG. 25h: The activation of LILRB4 by APOE was reduced by the indicated single amino acid mutation of LILRB4. FIG. 25i-FIG. 25l: APOE is necessary for LILRB4-mediated homing. Forced expression of human lilrb4 on mouse leukemia C1498 cells increases leukemia cell homing in wildtype (WT) recipient mice (n=5) (shown in FIG. 25i). Human lilrb4-expressing C1498 cells (1), but not control GFP-expressing C1498 cells (FIG. 25k), were less capable of homing in APOE-null (KO) mice (n=5) than in WT mice (n=5); Mice were sacrificed at 20 hrs after injection of leukemia cells. GFP was used to detect leukemia cells by flow cytometry.
(§2) FIGS. 29a-29g—Three APOE isoforms bind to human LILRB4. FIGS. 29a-c: Binding kinetics of APOE 2, 3, and 4 to LILRB4-Fc were measured using surface plasmon resonance (SPR). LILRB4-Fc was immobilized on Protein A biosensor tips and incubated with APOE concentrations ranging from 1.5625 nM to 100 nM. […] (FIGS. 29d-f) Binding kinetics of APOE 2, 3, and 4 to LILRB4-Fc were measured using Bio-layer Interferometry (Octet). LILRB4-Fc was immobilized on Protein A biosensor tips and incubated with APOE concentrations ranging from 44 nM to 1176 nM. […] (FIG. 29g) Binding kinetics of APOE 3 to His-LILRB4 was measured using microscale thermophoresis (MST).

The target of the next test is T2, LILRB4 (Homo sapiens, UniProt Q8NHJ6).
T2 construct: fusion of the extracellular domain (ECD) of individual LILRBs and their mouse orthologues; PILRbeta part (fusion partner); expressed in transfected cells
Description: LILRB4 chimeric receptor reporter cells (NFAT-GFP). Format: cell-based. The conditions noted are these: for Activation of LILRB4 reporter: percentage of GFP+ reporter cells; for Activation of LILRB4 reporter by APOE isoforms: 40 μg/ml APOEs coated on plates or soluble. The source says: The inventors sought to determine if antagonizing LILRB4 could prevent AML development by reversing LILRB4-mediated immune inhibition. To identify potential agonists and antagonists of LILRBs, the inventors generated individual stable chimeric receptor reporter cells based on fusion of the extracellular domain (ECD) of individual LILRBs and their mouse orthologues PirB^27 and gp49B1^28, with the intracellular domain of paired immunoglobulin-like receptor β, which signals through the adaptor DAP-12 to activate NFAT promoter-driven GFP expression, as the inventors have described^2, 31. With help from this system, the inventors generated novel anti-LILRB4 blocking antibodies to further assess LILRB4-mediated signaling (FIG. 10).
(§3) Chimeric receptor reporter cells. The inventors constructed a stable chimeric receptor reporter cell system as described^2 31 to test the ability of a ligand to bind to the ECD of individual LILRBs, PirB, and gp49B1 and to trigger the activation or inhibition of the chimerically fused intracellular domain of paired immunoglobulin-like receptor β, which signals through the adaptor DAP-12 to activate the NFAT promoter. If an agonist or antagonist binds the ECD and activates or suppresses the chimeric signaling domain, an increase or decrease, respectively, in GFP expression is observed.
APOE competition assay was used to screen LILRB4 blocking antibodies. Briefly, APOE proteins were pre-coated on 96-well plate at 37° C. for 3 hrs. After 2 times washing by PBS, 2×10^4 LILRB4 reporter cells were seeded in each well; meanwhile, indicated anti-LILRB4 antibodies were added into culture media. After 16 hrs, the percentage of GFP^+ reporter cells was analysed by flow cytometry.

For another test, the target named is T3, PirB (Mus musculus, UniProt P97484).
T3 construct: PILRbeta part (fusion partner); expressed in transfected cells
T3 sequence (P97484 25-642): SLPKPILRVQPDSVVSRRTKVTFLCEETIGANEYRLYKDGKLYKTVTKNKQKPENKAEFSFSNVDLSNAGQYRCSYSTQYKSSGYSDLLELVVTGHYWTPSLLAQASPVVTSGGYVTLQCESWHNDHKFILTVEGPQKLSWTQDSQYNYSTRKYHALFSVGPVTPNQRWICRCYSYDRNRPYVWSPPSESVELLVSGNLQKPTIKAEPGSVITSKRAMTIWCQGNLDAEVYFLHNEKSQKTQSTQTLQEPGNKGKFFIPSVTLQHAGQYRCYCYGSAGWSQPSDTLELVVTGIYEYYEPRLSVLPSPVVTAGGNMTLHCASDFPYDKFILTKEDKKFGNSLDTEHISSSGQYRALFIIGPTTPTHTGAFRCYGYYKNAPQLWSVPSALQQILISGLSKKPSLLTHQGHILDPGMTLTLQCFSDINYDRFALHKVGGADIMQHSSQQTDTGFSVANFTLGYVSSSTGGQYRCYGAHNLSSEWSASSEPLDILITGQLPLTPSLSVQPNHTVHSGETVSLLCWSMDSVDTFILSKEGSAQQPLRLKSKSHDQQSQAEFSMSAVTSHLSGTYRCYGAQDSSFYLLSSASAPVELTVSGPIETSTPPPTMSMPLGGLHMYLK
Description: PirB chimeric receptor reporter cells. Format: cell-based.
From the text: as §3

The target in a further test is T4, gp49B1 (Mus musculus, UniProt Q64281).
T4 construct: PILRbeta part (fusion partner); expressed in transfected cells
T4 sequence (Q64281 24-238): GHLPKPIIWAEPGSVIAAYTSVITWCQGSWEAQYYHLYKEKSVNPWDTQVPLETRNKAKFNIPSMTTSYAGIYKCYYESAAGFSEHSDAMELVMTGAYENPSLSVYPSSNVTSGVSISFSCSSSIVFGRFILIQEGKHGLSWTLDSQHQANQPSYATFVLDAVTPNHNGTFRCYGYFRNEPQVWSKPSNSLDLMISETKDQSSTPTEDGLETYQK
Description: gp49B1 chimeric receptor reporter cells. Format: cell-based.
From the text: as §3

The subject of test [2] is THP-1 cells. Put plainly: APOE binding to THP-1 cells by flow cytometry. Set-up: species or system human. The conditions noted are these: lilrb4-knockout versus wild-type THP-1 cells.
From the text: as §1, with “Human lilrb4-expressing C1498 cells (1), but not control GFP-expressing C1498 cells (FIG. 25k), were less capable of homing in APOE-null (KO) mice (n=5) than in WT mice (n=5); Mice were sacrificed at 20 hrs after injection of leukemia cells. GFP was used to detect leukemia cells by flow cytometry.” left out

The target in test [3] is T1, LILRB4-Fc. Description: Bio-layer interferometry (Octet) binding of APOE to LILRB4-Fc. To be noted: APOE 44 nM to 1176 nM. The procedure:
as §2
Bio-layer Interferometry. Binding interactions analyses between LILRB4-Fc with APOE2, APOE3, and APOE4 were performed on the Octet RED96 (ForteBio, Pall Corporation). All interaction studies were performed with the protein A dip-and-read biosensors (ForteBio). All binding experiments were performed using the Octet Red and kinetics buffer at 30° C. LILRB4-Fc coated biosensors (25 μg/ml LILRB4-Fc was loaded for 420 s) were washed in kinetics buffer before monitoring of association (300 s) and dissociation (600 s) of APOEs. Background wavelength shifts were measured from reference sensors that were loaded only with LILRB4-Fc.

Test [4] deals with THP-1 cells. Put plainly: Transwell trans-endothelial migration of THP-1 cells. Format: cell-based, human. To be noted: 2.5 μM STAT inhibitor.
The subject of test [5] is T cells co-cultured with THP-1 cells. Put plainly: Tumor cell/T cell co-culture assay. Format: cell-based, human. The conditions noted are these: T cells with irradiated THP-1 cells, protein supplemented. The protocol: Tumor cell/T cell co-culture assay. Human T cells isolated from health donor peripheral blood (PB009-1-0, Allcells) were co-cultured with irradiated (28 Gy) THP-1 cells in a U-bottom 96 well-plate for 3-7 days. Anti-CD3/CD28-coated beads (#11161D, Thermo Fisher), 50 U/ml recombinant human IL-2, and 5 ng/ml recombinant human IL-7 were supplemented to the medium. In some experiments, THP-1 cells were cultured in the upper chamber of transwell inserts (pore size is 3 μM, #09-761-80, Thermo Fisher) for the U-bottom 96 well-plate. For primary AML or B-ALL samples, patient CD3^+ T cells were collected and patient leukemia cells were sorted as CD33^+ and CD19^+ for AML and B-ALL, respectively.
CD8^+ T cells (5×10^4 per well) isolated from hPBMCs of a healthy donor (Interstate Blood Bank) were stimulated with anti-CD3/CD28/CD137-coated beads (11163D, Thermo Fisher) or cultured without stimulation for 2 days in a 96-well plate. Then, 5×10^3 human leukemia THP-1-Luc-GFP cells and 50 to 500 μg/ml anti-LILRB4 antibody C84 or control antibody mIgG were added. Cell numbers were determined on day 7 in triplicate wells. Anti-CD8 and anti-CD28 were used to detect human CTL cells; THP-1 cells were positive for GFP. […]

T1 sequence (Q8NHJ6 22-259 limits assumed): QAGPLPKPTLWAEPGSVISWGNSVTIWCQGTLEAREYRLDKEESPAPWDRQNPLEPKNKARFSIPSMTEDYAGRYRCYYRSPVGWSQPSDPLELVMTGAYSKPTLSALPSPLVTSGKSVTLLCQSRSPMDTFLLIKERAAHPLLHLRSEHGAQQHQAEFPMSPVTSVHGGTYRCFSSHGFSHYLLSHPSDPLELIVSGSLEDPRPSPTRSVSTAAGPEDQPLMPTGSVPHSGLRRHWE
T2 sequence (Q8NHJ6 with tags, fused parts or gaps): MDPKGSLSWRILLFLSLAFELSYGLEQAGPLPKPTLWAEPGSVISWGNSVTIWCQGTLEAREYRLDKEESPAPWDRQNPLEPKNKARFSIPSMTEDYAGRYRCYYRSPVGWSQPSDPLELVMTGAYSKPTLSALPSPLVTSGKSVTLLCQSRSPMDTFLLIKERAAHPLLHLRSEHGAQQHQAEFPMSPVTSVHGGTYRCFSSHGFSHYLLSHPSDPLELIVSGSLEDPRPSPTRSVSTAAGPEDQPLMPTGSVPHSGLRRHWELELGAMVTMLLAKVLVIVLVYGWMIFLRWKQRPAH

Turning to “recombinant APOE: recombinant APOE protein, isoform not stated at the place”, the dissociation constant (Kd) with LILRB4-Fc [1] was determined as 2 nM. For the same molecule, in the test with LILRB4, the “Activation of LILRB4 reporter” value is given as “activates”. Also, in the test with PirB, the “Activation of mouse PirB reporter” value was “specifically activated”. In addition, the “Activation of gp49B1 reporter” value with gp49B1 is listed as “not”. Moreover, the “Binding of APOE to THP-1 cells” value in the test with THP-1 cells [2] was “significantly decreased”.

Take “APOE-POPC: liposome-reconstituted APOE protein”: in the test with LILRB4, the “Activation of LILRB4 reporter” value is “same ability as lipid-free APOE protein”.

For the molecule “APOE3: isoform of human APOE, ligand of LILRB4”, the Kd was 2.48 nM in the test with LILRB4-Fc [1] and 61.7 nM with LILRB4-Fc [3]. Further, the “Activation of LILRB4 reporter by APOE isoforms” value (shortened to “Activation … by APOE isoforms”) with LILRB4 is given as “activate”.

On to “APOE4: isoform of human APOE, ligand of LILRB4”, for which the equilibrium dissociation constant (Kd) is 3.57 nM in the test with LILRB4-Fc [1] and 48.4 nM in the test with LILRB4-Fc [3]. In the test with LILRB4, the “Activation … by APOE isoforms” value is given as “activate”.

With `O=[N+]([O-])c1ccc2c(c1)S(=O)(=O)C=C2` [stattic, reference compound], the “THP-1 cell transmigration across endothelial cells” value in the test with THP-1 cells [4] is listed as “decreases”.

Turning to “APOE2: isoform of human APOE, ligand of LILRB4”, the Kd with LILRB4-Fc [1] amounted to 5.53 nM; with LILRB4-Fc [3] it was 60.7 nM. Moreover, the “Activation … by APOE isoforms” value in the test with LILRB4 was “activate”.

B1: mouse APOE: mouse APOE protein (protein)
chain: EGEPEVTDQLEWQSNQPWEQALNRFWDYLRWVQTLSDQVQEELQSSQVTQELTALMEDTMTEVKAYKKELEEQLGPVAEETRARLGKEVQAAQARLGADMEDLRNRLGQYRNEVHTMLGQSTEEIRARLSTHLRKMRKRLMRDAEDLQKRLAVYKAGAREGAERGVSAIRERLGPLVEQGRQRTANLGAGAAQPLRDRAQAFGDRIRGRLEEVGNQARDRLEEVREHMEEVRSKMEEQTQQIRLQAEIFQARLKGWFEPIVEDMHRQWANLMEKIQASVATNPIITPVAQENQ
Consider B1, for which the “Activation of LILRB4 reporter” value with LILRB4 was “can activate”.

B2: Mut-N: N-terminal mutant of human APOE: R142A/K143A/R145A/K146A/R147A/R150A (protein)
chain: KVEQAVETEPEPELRQQTEWQSGQRWELALGRFWDYLRWVQTLSEQVQEELLSSQVTQELRALMDETMKELKAYKSELEEQLTPVAEETRARLSKELQAAQARLGADMEDVCGRLVQYRGEVQAMLGQSTEELRVRLASHLAALAAALLADADDLQKRLAVYQAGAREGAERGLSAIRERLGPLVEQGRVRAATVGSLAGQPLQERAQAWGERLRARMEEMGSRTRDRLDEVKEQVAEVRAKLEEQAQQIRLQAEAFQARLKSWFEPLVEDMQRQWAGLVEKVQAAVGTSAAPVPSDNH
Consider B2, for which the “Activation of LILRB4 reporter” value in the test with LILRB4 is given as “significantly reduced”.

B3: CCL4: CCL4 protein supplemented in co-culture media (protein, UniProt P13236 24-92, looked up)
C-C motif chemokine 4: APMGSDPPTACCFSYTARKLPRNFVVDYYETSSLCSQPAVVFQTKRSKQVCADPSESWVQEYVYDLELN
For B3, the “T cell proliferation in coculture” value in test [5] is listed as “suppressed”.
